In US9045765B2, “EPSP synthase genes conferring herbicide resistance” (priority 2006, dated 2015):

Tests used:
[1] = tested on: GRG31 EPSP synthase enzymatic activity; assay: Temperature optimum of GRG31 enzymatic activity (phosphate release, AMPLEX Red fluorescence); assay type: biochemical, Sphingobacterium multivorum/faecium
Method: Following IPTG induction, the GRG31 protein was purified to homogeneity by standard methods. […] Following incubation, the enzyme was heated to 90° C. for 1 minute to denature the enzyme, and then cooled to 4° C. The phosphate generated by each reaction was then added to a second assay containing inosine, purine nucleoside phosphorylase, xanthine oxidase, horseradish peroxidase, and the fluorescent substrate AMPLEX® Red (U.S. Patent Application No. 60/741,166, filed Dec. 1, 2005). Following incubation for 15 minutes at room temperature, fluorescent product was quantified using a Gemini XPS spectrofluorometer (Molecular Devices Corporation, Sunnyvale, Calif.). EPSP synthase product formation was measured, and is expressed in Table 5 as a percentage of maximal activity.

[2] = tested on: GRG31 EPSP synthase enzymatic activity; assay: Thermal stability of GRG31 enzymatic activity at 37° C. (AMPLEX Red assay, 2 mM glyphosate); assay type: biochemical, Sphingobacterium multivorum/faecium
Method: Following IPTG induction, the GRG31 protein was purified to homogeneity by standard methods. To measure enzymatic activity, the purified GRG31 enzyme was diluted to an appropriate assay concentration in buffer containing HEPES (50 mM, pH 7) and 50 mM KCl, and then incubated at 37° C. for 0, 2, 6 or 22 hours. A control sample was incubated alongside at 4° C. At each timepoint, an aliquot was removed from each sample and enzymatic assays were carried out in a final volume of 50 μl containing 0.5 mM shikimate-3-phosphate, 200 uM phosphoenolpyruvate (PEP), 1 U/ml xanthine oxidase, 2 U/ml nucleoside phosphorylase, 2.25 mM inosine, 1 U/ml horseradish peroxidase, 2 mM glyphosate, 50 mM HEPES/KOH pH 7.0, 100 mM KCl, and AMPLEX® Red (Invitrogen) according to the manufacturer's instructions. Assays were started by adding shikimate-3-phosphate. EPSP synthase activity was measured using a Spectramax Gemini XPS fluorescence spectrometer (Molecular Dynamics, excitation: 555 nm; emission: 590 nm). EPSP synthase thermal stability was calculated as the percentage of enzymatic activity at each timepoint at 37° C. relative to enzymatic activity in the control sample incubated alongside at 4° C. (Table 6).

B1: GRG31: glyphosate-resistant EPSP synthase, predicted translation product of grg31, from strain ATX21318 (protein)
chain: MNQQVITLTHPSKKIQGTVQLTGSKSESNRALIIQSLSKGQVEIANLSEAADTVTLNRVLQIASDPKPGFNTIDIGPAGTAMRFLTAYLNLVKGNFILTGTERMQQRPIGILVDAMKEIGADIHYDKKVGYPPLKIEGGLFQEKDRVKIKGNISSQYISALLLIAPALKKGLTLEIEGELTSRPYVSMTLDMLKSVGIQHEWKNNAIKIAPQAFEKQTIYVEPDWSAASYWYAIAALADANASIVLPGLRKNSLQGDIAIISIMEHFGVQSSFESDGLHLNKKVIGSDVSLFNFKECPDLAQTVVVVAAALKRDVSFTGLETLKIKETDRIAALQKEIAKFGAELIEDGDTYHLKTAQVYQPEEVTFDTYEDHRMAMAFAPLALVFDQIKIAEPQVVEKSYPDFWNHLQAQAFVIE
modifications: Sphingobacterium multivorum/faecium
notes: glyphosate-resistant EPSP synthase, predicted translation product of grg31, from strain ATX21318
- Percentage of Maximal Activity ([1]; 10 ° C., 15 minutes incubation): 42%
- Percentage of Maximal Activity ([1]; 20 ° C., 15 minutes incubation): 62%
- Percentage of Maximal Activity ([1]; 30 ° C., 15 minutes incubation): 69%
- Percentage of Maximal Activity ([1]; 40 ° C., 15 minutes incubation): 80%
- Percentage of Maximal Activity ([1]; 50 ° C., 15 minutes incubation): 100%
- Percentage of Maximal Activity ([1]; 60 ° C., 15 minutes incubation): 96%
- Percentage of Maximal Activity ([1]; 70 ° C.): 67%
- Percentage of Maximal Activity ([1]; 80 ° C.): 36%
- Percentage of control (enzymatic activity at 37° C. relative to control at 4° C.) ([2]; 0 hours at 37° C.): 100%
- Percentage of control (enzymatic activity at 37° C. relative to control at 4° C.) ([2]; 2 hours at 37° C.): 86%
- Percentage of control (enzymatic activity at 37° C. relative to control at 4° C.) ([2]; 6 hours at 37° C.): 68%
- Percentage of control (enzymatic activity at 37° C. relative to control at 4° C.) ([2]; 22 hours at 37° C.): 29%
